Two molecules from patent US20100125055A1 (Dana-Farber, published 2010) can be followed below.

Where no end group is shown, it is not given here.

First the molecules themselves.
B1: MUC1/CQC peptide (peptide)
peptide: CQCRRKNYGQLDIFP
modifications: cysteine pairing not given here; also: poly-D-Arg transduction domain, length and attachment end not given here
notes: Synthetic peptide (MIT Biopolymer Laboratory); also called CQC long (15-mer); not shown: The poly-D-Arg cell transduction domain
B2: His-tagged MUC1 cytoplasmic domain (other)
chain: CQCRRKNYGQLDIFPARDTYHPMSEYPTYHTHGRYVPPSSTDRSPYEKVSAGNGGSSLSYTNPAVAATSANL
notes: Purified recombinant protein; It forms oligomers; also called His-MUC1-CD; His-tagged MUC1-CD; not shown: His tag

Data set [1] has as its target B2. Description: BIAcore (SPR), His-MUC1-CD immobilized, peptide injected at 10 uM, 1:1 Langmuir fit. The procedure: (§1) The N-terminal 15 amino acids (shaded sequence) MUC1/CQC and mutated MUC1/AQA peptides were synthesized with the poly-dArg transduction domain. (FIG. 1B) His-MUC1-CD (1.4 mg/ml) was immobilized on a sensor chip in a BIAcore. MUC1/CQC was injected over the chip at 10 μM. Raw binding data were analyzed by BIAevaluation software version 3.0 and fit to a 1:1 Languir binding model. (FIG. 1C) Purified His-MUC1-CD (1.5 mg/ml) was incubated with PBS, 200 μM MUC1/CQC or 200 μM MUC1/AQA for 1 h at room temperature. The proteins were separated in a non-reducing SDS-polyacrylamide gel and analyzed by immunoblotting with anti-MUC1-C. (FIG. 1D) 293 cells were transiently transfected to express an empty vector or GFP-MUC1-CD and Flag-MUC1-CD. At 48 h after transfection, the cells were treated with 5 μM MUC1/CQC or MUC1/AQA for 3 d. The cells were then harvested for immunoblotting with anti-MUC1-C (left panel). Whole cell lysates were also precipitated with anti-Flag and the precipitates were immunoblotted with the indicated antibodies (right panels).
Effects of the MUC1/CQC peptide on MUC1 oligomer formation. The MUC1 cytoplasmic domain (MUC1-CD) contains a CQC motif that is necessary for the formation of oligomers and nuclear localization (Leng et al., 2007). […] Purified His-tagged MUC1-CD forms oligomers as detected by electrophoresis in polyacrylamide gels (FIG. 1C).

Data set [2] deals with the molecule itself. The data set is described as follows: self-association of purified His-MUC1-CD (1.5 mg/ml); non-reducing SDS-polyacrylamide gel, immunoblot with anti-MUC1-C; incubated 1 h with PBS, 200 uM MUC1/CQC or 200 uM MUC1/AQA. The procedure:
as §1, with “Schematic representation of the MUC1-C subunit and the 72-amino acid sequence of MUC1-CD are shown. The N-terminal” for “The N-terminal”
A general note: A western blot detects proteins with antibodies after separation by electrophoresis.

What is called Kd is the equilibrium constant for the complex coming apart. High values mean weaker binding, low ones tighter binding. B1 displayed a Kd in data set [1] of 30 nM. In other words, the double-digit nanomolar range.
Regarding B2, the binding result in data set [2] is recorded as “binds”.
